Reference: patent publication US20160264649A1

Legend:
Experiment in all cases: cell-based or functional assay
[1] = target: HIV-1 Env of isolate MGRM-D-004 (subtype D) (HIV-1)
[2] = target: HIV-1 Env of isolate MGRM-F1-021 (subtype F) (HIV-1)
[3] = target: HIV-1 Env of isolate MGRM-D-013 (subtype D) (HIV-1)
[4] = target: HIV-1 Env of isolate MGRM-D-026 (subtype D) (HIV-1)
[5] = target: HIV-1 Env of isolate MGRM-D-028 (subtype D) (HIV-1)
[6] = target: envelope of aMLV pseudovirus (negative control)
[7] = target: HIV-1 Env of isolate 92UG114 (subtype D) (HIV-1)
[8] = target: HIV-1 Env of isolate MGRM-D-018 (subtype D) (HIV-1)
[9] = target: HIV-1 Env of pseudovirus isolate MGRM-G-001 (subtype G) (HIV-1)
[10] = target: HIV-1 Env of pseudovirus isolate MGRM-G-004 (subtype G) (HIV-1)
[11] = target: HIV-1 Env of isolate MGRM-D-014 (subtype D) (HIV-1)
[12] = target: HIV-1 Env of isolate MGRM-F1-004 (subtype F) (HIV-1)
[13] = target: HIV-1 Env of pseudovirus isolate MGRM-G-017 (subtype G) (HIV-1)
[14] = target: HIV-1 Env of pseudovirus isolate MGRM-G-009 (subtype G) (HIV-1)
[15] = target: HIV-1 Env of isolate MGRM-F1-018 (subtype F) (HIV-1)
[16] = target: HIV-1 Env of isolate 92UG046 (subtype D) (HIV-1)
[17] = target: HIV-1 Env of isolate MGRM-F1-013 (subtype F) (HIV-1)
[18] = target: HIV-1 Env of isolate MGRM-F1-006 (subtype F) (HIV-1)
[19] = target: HIV-1 Env of isolate MGRM-D-021 (subtype D) (HIV-1)
[20] = target: HIV-1 Env of isolate MGRM-F1-023 (subtype F) (HIV-1)
[21] = target: HIV-1 Env of isolate MGRM-F1-012 (subtype F) (HIV-1)
[22] = target: HIV-1 Env of isolate MGRM-F1-014 (subtype F) (HIV-1)
[23] = target: HIV-1 Env of isolate MGRM-D-008 (subtype D) (HIV-1)
[24] = target: HIV-1 Env of pseudovirus isolate MGRM-G-025 (subtype G) (HIV-1)
[25] = target: HIV-1 Env of isolate MGRM-D-002 (subtype D) (HIV-1)
[26] = target: HIV-1 Env of isolate MGRM-D-016 (subtype D) (HIV-1)
[27] = target: HIV-1 Env of isolate MGRM-D-019 (subtype D) (HIV-1)
[28] = target: HIV-1 Env of isolate MGRM-D-001 (subtype D) (HIV-1)
[29] = target: HIV-1 Env of isolate MGRM-F1-008 (subtype F) (HIV-1)
[30] = target: HIV-1 Env of isolate MGRM-D-022 (subtype D) (HIV-1)
[31] = target: HIV-1 Env of isolate MGRM-F1-020 (subtype F) (HIV-1)
[32] = target: HIV-1 Env of pseudovirus isolate MGRM-G-027 (subtype G) (HIV-1)
[33] = target: HIV-1 Env of isolate MGRM-D-005 (subtype D) (HIV-1)
[34] = target: HIV-1 Env of pseudovirus isolate MGRM-G-019 (subtype G) (HIV-1)
[35] = target: HIV-1 Env of isolate MGRM-F1-017 (subtype F) (HIV-1)
[36] = target: HIV-1 Env of isolate MGRM-D-011 (subtype D) (HIV-1)
[37] = target: HIV-1 Env of pseudovirus isolate MGRM-G-028 (subtype G) (HIV-1)
[38] = target: HIV-1 Env of pseudovirus isolate MGRM-G-024 (subtype G) (HIV-1)
[39] = target: HIV-1 Env of isolate MGRM-F1-022 (subtype F) (HIV-1)
[40] = target: HIV-1 Env of isolate MGRM-D-029 (subtype D) (HIV-1)
[41] = target: HIV-1 Env of isolate 92UG005 (subtype D) (HIV-1)
[42] = target: HIV-1 Env of pseudovirus isolate MGRM-G-013 (subtype G) (HIV-1)
[43] = target: HIV-1 Env of isolate MGRM-F1-016 (subtype F) (HIV-1)
[44] = target: HIV-1 Env of isolate 92UG001 (subtype D) (HIV-1)
[45] = target: HIV-1 Env of isolate 92UG024 (subtype D) (HIV-1)
[46] = target: HIV-1 Env of isolate MGRM-D-003 (subtype D) (HIV-1)
[47] = target: HIV-1 Env of isolate 98CN009 (subtype CRF07_BC) (HIV-1)
[48] = target: HIV-1 Env of isolate 98CN006 (subtype CRF08_BC) (HIV-1)
[49] = target: HIV-1 Env of pseudovirus isolate MGRM-G-014 (subtype G) (HIV-1)
[50] = target: HIV-1 Env of isolate MGRM-D-024 (subtype D) (HIV-1)
[51] = target: HIV-1 Env of pseudovirus isolate MGRM-G-011 (subtype G) (HIV-1)
[52] = target: HIV-1 Env of isolate MGRM-F1-015 (subtype F) (HIV-1)
[53] = target: HIV-1 Env of isolate MGRM-F1-010 (subtype F) (HIV-1)
[54] = target: HIV-1 Env of pseudovirus isolate MGRM-G-006 (subtype G) (HIV-1)
[55] = target: HIV-1 Env of pseudovirus isolate MGRM-G-016 (subtype G) (HIV-1)
[56] = target: HIV-1 Env of pseudovirus isolate MGRM-G-015 (subtype G) (HIV-1)
[57] = target: HIV-1 Env of isolate MGRM-D-020 (subtype D) (HIV-1)
[58] = target: HIV-1 Env of isolate MGRM-D-012 (subtype D) (HIV-1)

B1: PGT-126 (antibody, V domains shown)
VH: QPQLQESGPGLVEASETLSLTCTVSGDSTAACDYFWGWVRQPPGKGLEWIGGLSHCAGYYNTGWTYHNPSLKSRLTISLDTPKNQVFLKLNSVTAADTAIYYCARFDGEVLVYHDWPKPAWVDLWGRGTLVTVSS
VL: QSALTQPPSASGSPGQSISISCTGTSNRFVSWYQQHPGKAPKLVIYGVNKRPSGVPDRFSGSKSGNTASLTVSGLQTDDEAVYYCSSLVGNWDVIFGGGTKLTVL
B1 showed an IC50 (neutralization) [1] greater than 50 µg/mL, an IC50 (neutralization) [2] greater than 50 µg/mL and an IC50 (neutralization) [3] greater than 50 µg/mL. For the same binder, the IC50 (neutralization) [4] was greater than 50 µg/mL, the IC50 (neutralization) [5] was greater than 50 µg/mL and the IC50 [6] was greater than 50 µg/mL. It also gave an IC50 (neutralization) [7] of 0.038 µg/mL, an IC50 (neutralization) [8] of 0.009 µg/mL and an IC50 [9] of 0.038 µg/mL. For the same binder, the IC50 [10] was greater than 50 µg/mL, the IC50 (neutralization) [11] was 0.03 µg/mL and the IC50 (neutralization) [12] was 0.063 µg/mL. For the same binder, the IC50 [13] was greater than 50 µg/mL, the IC50 [14] was greater than 50 µg/mL and the IC50 (neutralization) [15] was 14.9 µg/mL. For the same binder, the IC50 (neutralization) [16] was greater than 50 µg/mL, the IC50 (neutralization) [17] was greater than 50 µg/mL and the IC50 (neutralization) [18] was 0.078 µg/mL. It also gave an IC50 (neutralization) [19] of 0.047 µg/mL, an IC50 (neutralization) [20] of 0.009 µg/mL and an IC50 (neutralization) [21] of 0.3 µg/mL. For the same binder, the IC50 (neutralization) [22] was greater than 50 µg/mL, the IC50 (neutralization) [23] was 43.1 µg/mL and the IC50 [24] was 17.1 µg/mL. For the same binder, the IC50 (neutralization) [25] was 0.039 µg/mL, the IC50 (neutralization) [26] was greater than 50 µg/mL and the IC50 (neutralization) [27] was greater than 50 µg/mL. It also gave an IC50 (neutralization) [28] of 0.084 µg/mL, an IC50 (neutralization) [29] greater than 50 µg/mL and an IC50 (neutralization) [30] greater than 50 µg/mL. It also gave an IC50 (neutralization) [31] greater than 50 µg/mL, an IC50 [32] of 0.875 µg/mL and an IC50 (neutralization) [33] of 0.792 µg/mL. For the same binder, the IC50 [34] was 0.018 µg/mL, the IC50 (neutralization) [35] was greater than 50 µg/mL and the IC50 (neutralization) [36] was 0.009 µg/mL. The IC50 [37] was 0.012 µg/mL, the IC50 [38] was greater than 50 µg/mL and the IC50 (neutralization) [39] was greater than 50 µg/mL. For the same binder, the IC50 (neutralization) [40] was greater than 50 µg/mL, the IC50 (neutralization) [41] was 0.037 µg/mL and the IC50 [42] was 48.8 µg/mL. The IC50 (neutralization) [43] was greater than 50 µg/mL, the IC50 (neutralization) [44] was greater than 50 µg/mL and the IC50 (neutralization) [45] was greater than 50 µg/mL. It also gave an IC50 (neutralization) [46] of 0.021 µg/mL, an IC50 (neutralization) [47] of 0.019 µg/mL and an IC50 (neutralization) [48] of 0.046 µg/mL. For the same binder, the IC50 [49] was 0.009 µg/mL, the IC50 (neutralization) [50] was 0.376 µg/mL and the IC50 [51] was 7.32 µg/mL. The IC50 (neutralization) [52] was greater than 50 µg/mL, the IC50 (neutralization) [53] was greater than 50 µg/mL and the IC50 [54] was greater than 50 µg/mL. For the same binder, the IC50 [55] was greater than 50 µg/mL, the IC50 [56] was greater than 50 µg/mL and the IC50 (neutralization) [57] was 0.023 µg/mL. It also gave an IC50 (neutralization) [58] greater than 50 µg/mL.
